Laboratory results taken from patent publication US11370846B2, “Compositions and methods to regulate Renalase in the treatment of cancer” (Yale University, priority 2014, dated 2022).
Entries after “also recorded” stand apart in the source; their conditions may differ. Where two headings read alike, the source gives them in different places.

Legend:
[1] = system: Panc1 cells; test: FACS apoptosis and cell cycle analysis of Panc1 cells; format: cell-based, human; conditions: 30 μg/ml
Protocol: FIG. 26A through FIG. 26E are a series of images and charts showing that inhibition of RNLS signaling induces apoptosis and cell cycle arrest. […] FIG. 26B is a chart depicting FACS analysis of Panc1 cells in culture treated with either m28-RNLS (30 μg/ml) or 100 μM etoposide (positive control) for 4 days; n=3, * indicates p<0.05. FIG. 26C is an image showing Panc1 cells treated with polyclonal ab31291 or with goat IgG as a negative control, and cells lysates probed for p38 and Bax activation by western blot. […] FIG. 26E is a chart showing the effect of m28-RNLS on cell cycle of Panc1 cells determined by FACS analysis; green curve: no treatment, purple curve: rabbit IgG, red curve: m28-RNLS 30 μg/ml.
For cell cycle analysis, cultured cells were dissociated using 10 mM EDTA, fixed with ice-cold 70% ethanol, digested with RNAse A, and stained with propidium iodide. Propidium staining was detected using a BD FACSCalibur flow cytometer (BD Biosciences, San Jose, Calif., USA), and analyzed using CellQuest software.
Apoptosis was detected and quantified as previously done (Guo et al., 2012 Cancer Science. 103(8):1474-80). […] At least 20,000 events were collected on a BD FACSCalibur flow cytometer (BD Biosciences, San Jose, Calif., USA) and analyzed using CellQuest software.

[2] = system: STAT3; test: STAT3 phosphorylation in Panc1 cells by western blot; format: cell-based, human; conditions: antibody treatment for up to 4 days; listed as m28-RNLS
Source text: FIG. 27A through FIG. 27E are a series of images and charts showing the interaction between RNLS and STAT3, and the mechanistic model of inhibition by m28-RNLS. FIG. 27A is an image showing activation of STAT3 by RNLS in Panc1 cells; Panc1 cells in culture treated with either BSA or RNLS, and STAT3 phosphorylation assessed by western blot; p-Ser^727-STAT3: phosphorylation at serine 727, p-Y^705-STAT3: phosphorylation at tyrosine 705; representative study. FIG. 27B is a chart depicting the quantification of STAT3 phosphorylation with RNLS; signals normalized to total STAT3; n=3, *=P<0.05. […] FIG. 27D is a chart showing the quantification of STAT3 phosphorylation with m28-RNLS; signals normalized to GAPDH loading control; n=3, *=P<0.05. FIG. 27E depicts the proposed mechanistic model for antitumor activity of m28-RNLS.

[3] = system: renalase-1 and renalase-2; test: Renalase isoform specificity of anti-renalase antibodies; format: binding, human; conditions: renalase-1 vs renalase-2
Protocol: Peptides were used as immunogens. The peptides generated ranged from 9 to 21 amino acids and corresponded to regions of the renalase-1 and renalase-2 proteins. […] Each peptide was conjugated to the adjuvant KLH via the cysteine and used to immunize 6 rabbits. Antiserum collected from each animal was screened for anti-renalase antibody titer by ELISA assay using both the relevant peptide (BSA-conjugate) or full length renalase-1 or 2. The antisera were also tested for their ability to detect endogenous renalase in tissue lysates by western blot. Using these screening criteria the animals producing antibodies with the preferred characteristics were selected. In some examples and for some peptides, several animals produced antibodies with the required specificity. […] Polyclonal antibodies raised against all of the peptides were generated by purification of total IgG from terminal bleeds by protein G chromatography followed by further purification on peptide affinity chromatography. Further and using standard procedures, lymphocytes from the spleens of selected animals were fused to myeloma cells for hybridoma generation. The hybridoma supernatants were screened for binding to both the peptides against which they were raised and secondarily screened against whole renalase protein. Selected hybridomas were sub-cloned and expanded for antibody purification. The monoclonal antibodies were purified from conditioned hybridoma culture supernatant by protein A affinity chromatography.

[4] = system: melanoma cells; test: Melanoma cell lines in culture, viability/growth; format: cell-based, human
Protocol: FIG. 19A through FIG. 19D are a series of images and charts showing that inhibition of RNLS signaling is cytotoxic to melanoma cells in vitro. […] FIG. 19B comprises two charts depicting relative cell viability: Left panel: Cells were treated with indicated antibodies for 72 hrs and cell viability was determined using WST-1; m28-RNLS (also known as 1D-28-4), m37-RNLS (also known as 1D-37-10): monoclonal antibodies raised against RNLS peptide RP220; Right panel: A375.S2 cells treated with increasing doses of m28-RNLS for 72 hrs and cell viability determined with a WST-1 assay; n=6, * indicates p<0.05 and ** indicates p<0.005. FIG. 19C comprises representative photos of A375.S2, SkMe128, and SkMe15 after 72 hrs incubation with either control rabbit IgG or m28-RNLS. FIG. 19D is a chart depicting relative cell viability, comprising amino acid (AA) sequence of RNLS peptide antagonist (RP220A).
For additional studies, cell viability was determined using WST-1 reagent (Roche Diagnostics, Indianapolis, Ind., USA) according to the manufacturers' instruction. Absorbances were read using a microplate reader (Power Waves XS, BioTek Instruments, Winooski, Vt., USA).

B1: 1D-28-4: rabbit anti-renalase monoclonal raised against peptide RP-220 (antigen 1D); heavy chain SEQ ID NO:9, light chain SEQ ID NO:10 (antibody)
heavy: METGLRWLLLVAVLKGVQCQSVEESGGRLVTPGTPLTLTCTVSGFSLSSFAVGWVRQAPGKGLEYIGIISSVGITRYASWAAGRFTISKTSTTVDLKITSPTTEDTATYFCARYGYSGDVNRLDLWGQGTLVTVSSGQPKAPSVFPLAPCCGDTPSSTVTLGCLVKGYLPEPVTVTWNSGTLTNGVRTFPSVRQSSGLYSLSSVVSVTSSSQPVTCNVAHPATNTKVDKTVAPSTCSKPTCPPPELLGGPSVFIFPPKPKDTLMISRTPEVTCVVVDVSQDDPEVQFTWYINNEQVRTARPPLREQQFNSTIRVVSTLPIAHQDWLRGKEFKCKVHNKALPAPIEKTISKARGQPLEPKVYTMGPPREELSSRSVSLTCMINGFYPSDISVEWEKNGKAEDNYKTTPAVLDSDGSYFLYSKLSVPTSEWQRGDVFTCSVMHEALHNHYTQKSISRSPGK
light: MDTRAPTQLLGLLLLWLPGATFAQVLTQTASPVSAAVGGTVTINCQASQSVYDNNNLAWYQQKPGQPPKQLIYGASTLASGVSSRFKGSGSGTQFTLTISGVQCDDAATYYCLGEFSCSSADCFAFGGGTEVVVKGDPVAPTVLIFPPSADLVATGTVTIVCVANKYFPDVTVTWEVDGTTQTTGIENSKTPQNSADCTYNLSSTLTLTSTQYNSHKEYTCKVTQGTTSVVQSFNRGDC
modifications: oryctolagus cuniculus
cell cycle of Panc1 cells [1]: pre-G2 cell cycle arrest | apoptosis of Panc1 cells ([1]; 4 days): caused apoptosis | p-Y705-STAT3 in Panc1 [2]: long-lasting and sustained decrease; also recorded: inhibits STAT3 phosphorylation | renalase isoform specificity [3]: recognize renalase-1 and renalase-2 | melanoma cell growth/viability in culture [4]: inhibits melanoma cells in culture | melanoma cell growth/viability in culture ([4]; listed as m28-RNLS): decreased the viability of all (total of 5) melanoma cell lines tested
